In the test the target is Apolipoprotein E receptor-2 (Apoer2) (human) (UniProt Q14114). Briefly: cell-based or functional assay.

U937 monocyte adhesion to HAEC monolayers data for one substance are collected here from US20230123187A1.

Sequence of UniProt Q14114 (Q14114 33-963): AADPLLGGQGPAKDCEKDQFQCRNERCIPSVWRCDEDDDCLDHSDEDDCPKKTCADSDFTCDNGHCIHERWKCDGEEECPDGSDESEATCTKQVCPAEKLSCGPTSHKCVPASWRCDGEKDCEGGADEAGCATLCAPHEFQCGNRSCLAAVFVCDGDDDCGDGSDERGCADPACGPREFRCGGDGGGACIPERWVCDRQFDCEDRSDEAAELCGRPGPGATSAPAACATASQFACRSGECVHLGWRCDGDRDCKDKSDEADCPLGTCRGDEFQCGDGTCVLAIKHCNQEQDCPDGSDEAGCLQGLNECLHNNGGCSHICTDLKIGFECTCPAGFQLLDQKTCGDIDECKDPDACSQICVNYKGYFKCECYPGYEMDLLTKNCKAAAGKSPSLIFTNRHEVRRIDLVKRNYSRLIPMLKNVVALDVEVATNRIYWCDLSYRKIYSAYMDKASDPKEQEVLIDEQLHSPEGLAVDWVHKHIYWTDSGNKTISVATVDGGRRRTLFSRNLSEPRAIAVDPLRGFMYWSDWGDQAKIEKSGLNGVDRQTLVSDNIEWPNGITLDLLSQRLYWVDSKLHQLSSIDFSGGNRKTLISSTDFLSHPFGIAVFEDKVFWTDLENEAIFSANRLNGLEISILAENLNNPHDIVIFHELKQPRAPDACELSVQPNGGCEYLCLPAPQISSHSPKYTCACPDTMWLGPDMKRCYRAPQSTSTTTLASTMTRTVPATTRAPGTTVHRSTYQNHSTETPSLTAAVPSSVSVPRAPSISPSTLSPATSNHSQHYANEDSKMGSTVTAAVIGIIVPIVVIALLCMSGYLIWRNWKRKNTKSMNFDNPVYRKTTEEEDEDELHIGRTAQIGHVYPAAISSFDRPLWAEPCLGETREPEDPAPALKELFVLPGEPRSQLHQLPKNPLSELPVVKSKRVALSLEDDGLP

Regarding Recombinant Reelin (ligand), the U937 monocyte adhesion to HAEC monolayers was > 2 fold.
